Molecular target: SMN1, wild type, LUMIER fusion, Q16637
Assay: LUMIER
Conditions: chain shown with the change;; parent: est. 51000; read off a plot

Sequence of SMN1, wild type, LUMIER fusion, Q16637 (Q16637 whole entry, the tested form may be a part): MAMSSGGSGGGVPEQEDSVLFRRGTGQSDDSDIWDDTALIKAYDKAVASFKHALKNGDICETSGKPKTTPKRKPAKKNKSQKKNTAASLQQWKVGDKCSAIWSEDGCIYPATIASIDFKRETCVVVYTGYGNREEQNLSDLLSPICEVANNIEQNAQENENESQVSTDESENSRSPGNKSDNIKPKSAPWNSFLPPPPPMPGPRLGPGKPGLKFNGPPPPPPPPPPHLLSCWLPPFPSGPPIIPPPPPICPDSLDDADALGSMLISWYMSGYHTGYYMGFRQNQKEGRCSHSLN

B1: PHF1, wild type, LUMIER fusion, O43189 Y47A (protein)
chain: MAQPPRLSRSGASSLWDPASPAPTSGPRPRLWEGQDVLARWTDGLLALGTIKKVDSAREVCLVQFEDDSQFLVLWKDISPAALPGEELLCCVCRSETVVPGNRLVSCEKCRHAYHQDCHVPRAPAPGEGEGTSWVCRQCVFAIATKRGGALKKGPYARAMLGMKLSLPYGLKGLDWDAGHLSNRQQSYCYCGGPGEWNLKMLQCRSCLQWFHEACTQCLSKPLLYGDRFYEFECCVCRGGPEKVRRLQLRWVDVAHLVLYHLSVCCKKKYFDFDREILPFTSENWDSLLLGELSDTPKGERSSRLLSALNSHKDRFISGREIKKRKCLFGLHARMPPPVEPPTGDGALTSFPSGQGPGGGVSRPLGKRRRPEPEPLRRRQKGKVEELGPPSAVRNQPEPQEQRERAHLQRALQASVSPPSPSPNQSYQGSSGYNFRPTDARCLPSSPIRMFASFHPSASTAGTSGDSGPPDRSPLELHIGFPTDIPKSAPHSMTASSSSVSSPSPGLPRRSAPPSPLCRSLSPGTGGGVRGGVGYLSRGDPVRVLARRVRPDGSVQYLVEWGGGGIF
**Q.** B1 was tested. Which response did it give?
**A.** 28000 RU
